{"source": "paper PMC7540724", "target": "Thermus thermophilus RodA (FLAG-3C-RodA) (Thermus thermophilus) (UniProt Q5SIX3)", "assay": "crystal structure", "data": [{"substance": "Thermus thermophilus PBP2 (PBP2-3C-PrtC) (enzyme)", "values": [{"measurement": "stoichiometry N (PBP2 per RodA)", "result": 1}]}]}
